Measurements reported in the DeepSol protein solubility set.

test: soluble on expression in E. coli; label from the status in PepcDB or PDB records

Soluble on expression in E. coli, not soluble:
MGSDKIHHHHHHMYVAVKGGEKAIEAAHQLQSCRRRGCTDIPELDCSQIEQQLNLAVDRVMTEGNIYDRQLAALAIKQASGDLVESIFLLRAYRSTLPRWGISQPLNTPDMRLERRVSAIFKDLPGGQLLGPTYDYTHRLLDFSLLADGEDPVAPQPDAVYEDEGTREHIPHAFQFLAQQHLVPERNISDDSNPSDITMEPPSYPGTRAARLQQLFRGDEGFLLSLGYSTQRGYGRNHPFVSEIRTGYITVSIVAEEVGFAIDIGEILLTECETVNGFVKPANDAPHFTRGYGLAFGRSERKAITVALADRALQAADYQEEVRGPAQDEEFVLSHADNVEAAGFVSHLKLPHYVDFQSELELLKRLREEYLASVPRSKA
MGSDKIHHHHHHMYVLAIDQSTSGTKAIIFDEKGGIVHRVTVYHKQYYPKPGWVEHDPEEIFRNTLDACRKVIEESGIKPLEIEALAITNQRETTILWEKKSGKPVYNAVVWQCQRGASLCEEIKKRGLEGKIKEKTGLVVDPYFSASKIRWILDNVEGVKNKAKQGEIAFGTVDSWLIWKLTKGEVHATDFSNASRTLLLNIHELRWDEEVLEIFEIPPEILPELKSSDSVFGYTDLGFLPKKIPIVGVMGDSSAALFGQGGFYSGDIKVTYGTGSSTMLNIGEKPNVSDSPIVCSVGWVVKETSSYVLEGNIHSAGDTIVWLKEKLGIISDPSETEKIALSLENNGGVYLVPAFVGLGAPYWRSDVKAAILGLQRNHGKEHVVRAALESIAYQVRDIFEEMVRISSKEPTEVRADGGITRNRFLMQFQADILNIPVLVSNIEEVSARGVAFVALLHLGAFSDLEEIRQKITYREKYEPRMGDELREMYYEGWKTAIRKLLTE
MGSDKIHHHHHHNEKQDWVGTWTASPQPTWGTDFALPVKMVPKLENQTIRQTVRTSVGGRRFRIVLSNEYSNVPIQIGEIRAARAGEDSKITAGTDRAVTFGGQAKATVPAGAPLVSDPVELPLDALSRLSISVYLPQPTPIATFHWDGKQTAYIGDGNQTASETIAAAQTTDARTLVSEILVDAPANNGAVIAIGDSITDGNGATLDADNRWPDVLAERLVSKQVSVLNAGISGARLLDDAMGVKASARFNRDVLAQPGVKAVILLIGINDISWPGTPFAPEKSLPSLAALTTGYLQLAAQAHAHNLIIVGGTLTPFEGALSGTPLDAYYTPEKEALRQKVNNWIRTSGAFDAVVDFDLLLRDPLHPTRLLPEFDSGDHLHPGDKGNRAMAEAIDLGQLIKN
MGSDKIHHHHHHQPAAGISDDMVKIGMLLDMSGLYADVTGRGSATAAQMAIDDFGGKVLGKKIELVVVDHQNKADIAANKAREWFDTGHVDAILDVAASAPALAVLDVAKQKNHIVVFSGPGSERITNDLCTPVSVHYAYDTYALANTTARAMVQRGGKTWFFLTADYAFGHTLQDSATAVINEAGGKVLGAARHPIGASDFASYLLQAQASKAQVVGLANAGGDTVNAIKAASEFGLTRNGAQRMAGLLLYINDIHAIGLKTASGLVLTEAFYWDMNDATRAWSRRYFEKVKKMPNMSQAGAYSSVMHYLKAVQAAGTDETAAVMKKMKSMPINDFFAKNGRIREDGRMIHDMYLFEVKSPAESKYPWDYYKVLATVPGDQAFMPASKSQCPLLKR
MGSDKIHHHHHHQPGATGGTWTCCPVSWRAFQSNCYFPLNDNQTWHESERNCSGMSSHLVTINTEAEQNFVTQLLDKRFSYFLGLADENVEGQWQWVDKTPFNPHTVFWEKGESNDFMEEDCVVLVHVHEKWVWNDFPCHFEVRRICKLPGITFNWKPSK
MGSDKIHHHHHHSCDGMDATYKEFIEEGPIVYIGKVDSLKAYAGRNRAMLEWQKLLDPRAKTAKIFWENRTRSTELQLTDKAGLTQVIVKDLAEGSYVFEVCTYDTHGNSSIMSEVPCTVYGDVYEKLLFNTKVKTAVLKNDVLTITFAASLEPTFFGSEITYTSIDGGDKTVILKAPETQIKIDDFAGDRIIYRSVYLPEETAIDYFYSESDEFEIK
MGSDKIHHHHHHSCDNDDDESIAVPTPLQEAFSTRYPNVKNVKWETKAGYYVADFYDGYEASAWFTTDGNWHMTETDIPYTALPDPVKSAFEASDYKTWKRDDVDKLERQGIETVYVIEVENQNQEVDLYYSADGVLIKSIADTDDHENEHLPTTQLPAVMKTFIDGKYAGARIVEVDVEDDKNDWDFGFTEVDIIHFDSGLNRNVSKEVLFDKGREWYSTSWEVRRNELPTAVTNAISTEYAGYQMDDAEYFEMATETSYYQIELEGNNSPDIDIKVTADGTILK
MGSDKIHHHHHHSCVNDLDTVPLDKDELVSDVVFGNEPLAYEQSLAKIYAGMAIGGNSGGDSDQDVVGIDGGSQASFLRVLWNMQDLPSDIAHCAWNDPGIPEFNHISWGASSPWIKGSYYRLFYQINVANAYLRETAEDKLDARGCDASLKASIKTWRAEARFLRALSYEYALDLYRNVPFVDENSPIGSIPPKQIMAADLFNWIEKELTECVEDMLEPTVGYSQDYGHANKAAAWALLSRLYLNAETYVGQNKYTECITYAKKVIETGYQLEPVYVDMFKADNHLSNEMIFPVRYEGDQTMTWGGMTAFLCWGATATQEEVNAKGAWQGVRAKSSLYNLFLKESGSDADTRKAMLRTDLTTSLEIIDENTFQNNGIPVTKYFNVNKDGTLPPSKEAYVDFPLFRLGEIYLTYAEAVLRGGQGGDRATALRYVNDLRKRAYSDKTLAPISDSDLTLNFIIDERGREFFFEGQRRTDLVRFGLFTTAGYVWPWKGGTAKGKAVENFYNVFPIPSDDIGSNTNLKQNEGY
MGSDKIHHHHHHSDQYSTETFWKTKEHASAGIMGCYNALKLWRSLHTMEFDMLTANAMPYNEANGTQAIGKGEHLSTTALIGSLWKNCYVGIGRTNTFIANVGGVDMDESEKAKMVGEAKFLRAFYYLSLVDKFGGVPLIIDAPNADEQAELPRNSKEEVVNQIVKDLEEAAAVLPDTYASSDLGRATKGAALALKARTLLYNSRWAEAAQAAKQVMESGVYQLFNDYRHFFSEDNKYNCEVIFDIEAKLPEYPTDYDQNIWRLNRPAPLKELVDTYLCVDGKTIEESPLYDPTRPYENRDPRLLKSIVCIGYPYLGKTITKEDVATTGFGVKKYTSYEDDVTIPLVERSAFNFILIRYAEVLLTYAEAQNEASGPDQSVYDAINQLRRRPDINMPEVPKGLTKDQMREVIRRERRIELTFEGLYYSDILRWKTAEKENNGMMHNYEGIEVVKRSFNPKRDYLWPIPYNQTVLNPNLEQNPNWD
MGSDKIHHHHHHSDVVDLEPVDKFSELTAYGTEERCELAVVGAYDAAQCGMYVDPNDFGWARGYPFGAASILQGEMRGEDMNLTAQFYDYTYSATYNLTTANNVAMWETSFEAINRYNTVYAGIEGAVAAGVITEEKGNQYKGECLFLRALTYHNLMIHYALPYNVEGNNNYGMPIYTKAVNDPSQLAEQQSIGRSTVKDTYDQILSDLNNAESMLPDIIDADKIGRASKGAAIALKTRVYLHMRDWNNVVTEAKKLEGGRFILETNPATPFVSYKDNQESIFSIPNDSQDNGSVNGAMSAMMSAREGGRAMCPTSPTLYNSKFWKGDDKRRNLVLYRASDDYYFCDKYQNPQTREEYAPILRYAEVLLNEAEAAARAGDKTLALEKLNQVRDRSLADPATQTYKASDFANTKALVEAILWERRIEFQGEGRRWEDIHRLAADDLLPSGGIPAKIEYNNVKNQGAFVVGGEVKAEWFGNSKQFIPYTDKRFIWPIPLNDILRNPTLAAQQNAGW
MGSDKIHHHHHHSQERTLFPTEKTDRVPLSVFTSFKADVTTRATAQPLPEGSSIGVFLIADANYTPQSNVKYTCQPDDEWTSETSVWVGGARAGLCAYYPFGKVTFSADIQTQTTLKNQAYTEDADWWYAKDNAAVTVTNLSPEIEFLLEKPYSQLSLEMIRNGRYPLQCKITNVRIELENGESMVDTGTFDIKDGSLQNTTDVTSYSYPTSGPMHDTGLGVGEAARDTTCNYLFVPQILASGLKLTLTIDEREFSVIVPQADLGELIAGKRHVVRLDIRGGIPINIVEVTTKEWQSTSLDGGDATTIKDTTEIIIDGGKVGTEDWASDPTENGSGAL
MGSDKIHHHHHHSQGKQISGSSNYITKNIKVGSFDQIKSMSSSDIVYTQKQGAPTVQIYGPDNIVELMETSVSGRTLTIKFKKNTSIRNSGKLEIRVSSPSLKHLSIYGSGNTTFTNGIKSHDELQMSIYGSGNISGNSFSCTKLAARIYGSGNVNLKRISTSDTQVNISGSGNVLLDGKSTEAEYHIAGSGDINATELKVENVNARISGSGSIRCYATENLTGGVSGSGNVAYKGNPQINFSKRGLQKL
MGSDKIHHHHHHSRSTQGVRSLGFYNRHTGERGQGSYWIDGDYQTNTLNDFNHLLRDHRQNETAPMDKRLFDLLFSLKQTLQVDEDFHVISGYRSPKTNQMLANRSSAVAKKSYHMKGMAMDIALPDVNLKDLRDAAISLKLGGVGYYPSSGFVHVDTGPIRTW
MGSDKIHHHHHHSSSDLKDLLRERIAAKYTIDDLKDTGKKIRKTAPIESLAAVSKIDRDPVQFINSVEQNLTKSLLPMRHSRMGASQAAFFRGTAELMAYDLQQGEKSGINLLIDGDAHLQNFGFYASPERNLLFDLNDFDEAQINSFEFDIKRLLTSVYLLGDQQGFDADKLDELVQTDASIYRKTLRDLFKVGALDRFYQSTEVNHLVQSIPGAEDSALLSKFVKKATKRNNDSVIKKYTTTIDGNMRFKDDPPSSVRLDKATYQAIFDGFTQYRKSTRPDILVLLSEYRITDIIHHSVGIGSFGTNCYLVLLSGLGGSHLVLQVKEALPPRPELIPNTERITLQQEVSQGQRIIASQMILQKASDPFLGWFNVGDKSYYVRQFRDMKGSVDLEELTFPEFQYYTQITTYLLAMAHAQTPQAAVVTGYLDKSFDSAVQRWSKWYLNQVKADYSAFMRAVQTHMLA
MGSDKIHHHHHHSTVAIALDCKGLGSPIPGTAPLCKDLTLMATGNKPSAAFVKNTRAAYGSVLQGYHNQVKPHVAPVQAAVSKKWKQFAKSDVGGKVEKIAMNIHAWIVDKWVKIQRFVQQTWNNVAAWWKKNGQKQFGPALEGFVLGVKMVFQVVADALRSVGALLVHFFARAKTFFVAFADGGFNAAMNTLNH
MGSDKIHHHHHHTKKEISTQPIKVGVFDGHGGAQTCIWETVAAIRLDPEMEVRTITTADIANNALDSIDAIIIPGGSGKSQYLNLGTLNQQRIKDFIAKGKGAVGICAGAYLFSNTPDYTCIQLNGQQAIDIEHDNRGHGLAKFTLCEEGKKIFPELADRDTSFVIYYEGPVFINNPVDTIQSNTLAIMESDVHEEGNAPANMTNGKPFFVANNYGKGRVFSSIAHPEGTPGMMWMIPRMVRWTLNKPFIPYQSSAVRPDLFNHESLMATDDLKQEEKAFQILLSGESEQKVAALDWLEAHHSWDAKRWVQGLLYDASPAVRIRAARYIADTHYLPFLPNLQAAYRTETDKATQEELKTQLEKLTALLP
MGSDKIHHHHHHVELHQLKDLLTEKLQATSLIHATISAPRLKSNDLRRIKVKPILLRDTYAIQLEFQHERIIKHENLSIEEFIVRMDQFFDEFRQFLFRFETEEVQFQLSKKMKVSIKTTVKEPIQAELSHNRKKSHLLEDGVPVPFLIRLGVMTEEGQVKRQKYDKFKQINRFLEFVEDSIAVLPKGRTLRILDFGCGKSYLTFALYHYLKIVKGFDLNVTGLDLKKEVIEECAAIAADLGYDDLSFRVGDVHDYDQDTEVDLMVTLHACDVATDVALARAVDWNASVILSVPCCQKELNRQLDCSPLDVMLQHGLIQEKFASLATDSIRAELLTLVGYETQLLEFIDLENTPKNILIRAYKNPKRPTEEKIDRYIAFRELLHAKPYLERELSGRLGQISSKLVQ
